B1: OR4K15 (parent)
chain: GUUAACGGUCAUAGGCCAUGGAAACUAGGAGCACCAUUUCGCUGCCAGUGAAGAAAUGAACAAAGAAAAUCUGGGCCAGGCAGGCAUCAAAAGAAAUAGUCUUGCGCUCAACCAGAAAGUCUGUAAUCAUUUUAAGGGUA

In this series the parent is B1. Description: self-cleavage, relative activity (ratio to wild type); higher = more cleavage; in vitro, sequencing; the parent is a self-cleaving ribozyme.
For A86C U108A, the self-cleavage was 0.16.

With A86U A117U, the self-cleavage came out at 1.56.

As to U87A G137A, the self-cleavage is 1.96.

Regarding A89G U131A, the self-cleavage stood at 0.3.

With C85G A96G, the self-cleavage was determined as 1.02.

In the case of C88A A94G, the self-cleavage was found to be 1.5.

For A86U, the self-cleavage amounted to 1.77.

For the variant A86G, the self-cleavage was found to be 1.16.

Take A86C: the self-cleavage is 1.22.

For A89G A91U, the self-cleavage is 2.19.

As to G84C A111G, the self-cleavage is 0.02.

Regarding A86U C101A, the self-cleavage turned out to be 0.09.

G83U U127C: the self-cleavage stood at 0.29.

On to U87C A116U, for which the self-cleavage stood at 0.17.

For U87G A140G, the self-cleavage was determined as 0.8.

A89U A135G: the self-cleavage turned out to be 1.53.

In the case of A89C G136A, the self-cleavage amounted to 1.27.

As to G84A A92U, the self-cleavage was 2.15.

Take U87C A111C: the self-cleavage turned out to be 0.02.

With U87C A111G, the self-cleavage came out at 0.03.

On to A89U A116U, for which the self-cleavage came out at 0.46.

On to U87C A118U, for which the self-cleavage was found to be 0.9.

Take U87C A118G: the self-cleavage stood at 0.75.

Regarding A89G U108C, the self-cleavage came out at 0.02.

With A89G U108A, the self-cleavage is 0.02.

Turning to A89G U108G, the self-cleavage turned out to be 0.01.

As for A89U U103A, the self-cleavage came to 1.09.

With A89U U103C, the self-cleavage came to 1.12.

G83U A110G: the self-cleavage turned out to be 0.06.

A82U U100C: the self-cleavage came out at 0.5.

Turning to A89C A134G, the self-cleavage stood at 1.16.

On to A86G C113U, for which the self-cleavage was determined as 0.03.

Consider G83A U122C, for which the self-cleavage came out at 1.87.

As to A86C U132C, the self-cleavage was 0.9.

With A86C A95G, the self-cleavage was determined as 1.34.

For A89C U130C, the self-cleavage was determined as 1.12.

As for A89U A117G, the self-cleavage came out at 2.46.

Consider A89U A117U, for which the self-cleavage was 0.7.

As for A86G A116G, the self-cleavage was 0.79.

As for A90G A116U, the self-cleavage turned out to be 0.5.

Take A82U U108C: the self-cleavage is 0.01.

For U87C U130G, the self-cleavage came out at 0.15.

Consider A86G U132A, for which the self-cleavage is 1.2.

With A86U A89C, the self-cleavage worked out at 1.51.

Take U87A A94G: the self-cleavage is 1.64.

For A89G G99A, the self-cleavage was 1.15.

For U87C A96G, the self-cleavage stood at 1.81.

U87C A96U: the self-cleavage stood at 1.48.

For the variant A90G A114G, the self-cleavage came out at 0.16.

Regarding G83A A117U, the self-cleavage worked out at 1.21.

With U87G U122C, the self-cleavage was determined as 0.68.

In the case of A82U A135G, the self-cleavage was 0.22.

Take A82U A135U: the self-cleavage is 0.12.

For the variant A89G A110G, the self-cleavage stood at 0.12.

Take A89U U108C: the self-cleavage turned out to be 0.02.

As to A89U U108G, the self-cleavage is 0.

U87G A125G: the self-cleavage was determined as 0.07.

A86U U87C: the self-cleavage was determined as 1.51.

Take U87G A90G: the self-cleavage was 0.82.

On to A86G U102C, for which the self-cleavage worked out at 2.36.

A86G U102G: the self-cleavage was found to be 0.39.

In the case of C85U U122C, the self-cleavage is 0.9.

For the variant U87G A117G, the self-cleavage was determined as 0.46.

As for A89G U132C, the self-cleavage stood at 1.4.

For the variant U87A U120C, the self-cleavage is 1.28.

Turning to A82U U131A, the self-cleavage came out at 0.07.

In the case of A82U U131C, the self-cleavage is 0.24.

As to C88A U102C, the self-cleavage is 2.23.

With C88A U102A, the self-cleavage was found to be 0.58.

On to G84C U100C, for which the self-cleavage came out at 0.27.

For the variant A82U U122G, the self-cleavage is 0.28.

As to U87C C101A, the self-cleavage was determined as 0.14.

Turning to A89U A118G, the self-cleavage turned out to be 1.61.

Turning to A89U A118C, the self-cleavage was 0.7.

A86G U122C: the self-cleavage was found to be 0.88.

A86G U122A: the self-cleavage was 1.61.

With U87A A89C, the self-cleavage came out at 0.99.

For A90G A94G, the self-cleavage was found to be 1.64.

On to A90G A94U, for which the self-cleavage was found to be 1.93.

Regarding A86U A129G, the self-cleavage was 2.26.

As for A86U A129U, the self-cleavage turned out to be 1.13.

A82U U97A: the self-cleavage came out at 0.34.

Turning to A82U U97C, the self-cleavage amounted to 0.06.

For the variant C88U A129G, the self-cleavage is 1.65.

Take A89U A98U: the self-cleavage came out at 1.41.

With A86C C109U, the self-cleavage is 0.25.

Take A89U A129C: the self-cleavage worked out at 0.68.

For A89U A129G, the self-cleavage is 1.59.

A86G A140U: the self-cleavage amounted to 1.3.

As to A86G A140G, the self-cleavage is 0.77.

As to A86U U102A, the self-cleavage came out at 1.36.

As to A82U A134G, the self-cleavage turned out to be 0.16.

On to A89U U100C, for which the self-cleavage came out at 2.55.

A90G A96U: the self-cleavage amounted to 1.79.

Consider A90G A96G, for which the self-cleavage is 1.25.

Turning to A90G A140U, the self-cleavage was found to be 0.74.

A90G A140G: the self-cleavage is 0.65.

Turning to A89G A98U, the self-cleavage was 2.15.

Consider C85A A125G, for which the self-cleavage turned out to be 0.72.

In the case of C88U A95G, the self-cleavage was determined as 2.12.

As to A86G U87C, the self-cleavage is 0.87.

Turning to U87C U124C, the self-cleavage was found to be 0.83.

C85A: the self-cleavage amounted to 1.18.

C85G: the self-cleavage is 1.18.

C85U: the self-cleavage was found to be 1.15.

On to A82U C105U, for which the self-cleavage was 0.01.

Consider C85U A96G, for which the self-cleavage came to 1.24.

In the case of U87C A94U, the self-cleavage came to 1.37.

As to U87C A94G, the self-cleavage turned out to be 1.04.

For the variant G83U U102C, the self-cleavage amounted to 0.35.

As to U87A U122A, the self-cleavage is 1.73.

Turning to U87A U122C, the self-cleavage came to 1.28.

U87A A125G: the self-cleavage came to 0.68.

Turning to C85A C109A, the self-cleavage amounted to 0.19.

As to A82U G138A, the self-cleavage was 0.17.

As for A89U A140G, the self-cleavage amounted to 1.61.

As for A89C A110G, the self-cleavage worked out at 0.18.

For the variant A86U U100C, the self-cleavage worked out at 2.52.

Take A86G A94U: the self-cleavage is 2.2.

Turning to G83A G93U, the self-cleavage was 2.03.

For C85A U100C, the self-cleavage was 0.72.

Regarding A89G U122C, the self-cleavage was 1.03.

As to A82U G123A, the self-cleavage was 0.19.

Take A82U A129G: the self-cleavage is 0.08.

In the case of A86U U122C, the self-cleavage stood at 1.74.

With U87C G137A, the self-cleavage was 2.3.

For the variant G83A U102C, the self-cleavage came out at 0.44.

With A90U A116U, the self-cleavage came out at 0.24.

Regarding A86G A91C, the self-cleavage came to 0.64.

As for G84C A114G, the self-cleavage was determined as 0.05.

In the case of A86U A140G, the self-cleavage worked out at 1.62.

For A90C U120A, the self-cleavage worked out at 1.88.

Consider A90G U131C, for which the self-cleavage was 0.31.

For U87C U133G, the self-cleavage amounted to 1.67.

For U87A U133C, the self-cleavage was found to be 1.05.

As for U87A U133G, the self-cleavage worked out at 1.25.

With A86U C112U, the self-cleavage stood at 0.02.

For the variant A86G U103C, the self-cleavage was determined as 0.45.

As for A86G U103A, the self-cleavage is 0.93.

As for A89U U97C, the self-cleavage amounted to 1.58.

In the case of G83A U120C, the self-cleavage was determined as 1.74.

Turning to G83A U87C, the self-cleavage was found to be 1.21.

For the variant A90U A98U, the self-cleavage was 2.21.

For the variant A82U A126C, the self-cleavage worked out at 0.05.

Consider A89U U130C, for which the self-cleavage stood at 1.2.

On to U87G U103C, for which the self-cleavage amounted to 0.22.

With A90G G123A, the self-cleavage is 0.48.

With U87A A126G, the self-cleavage was 1.66.

For the variant A90G U100A, the self-cleavage is 0.31.

Consider A90G U100C, for which the self-cleavage was found to be 2.32.

Consider U87C A126G, for which the self-cleavage stood at 0.82.

With U87C A126U, the self-cleavage came to 1.18.

On to U87C C109U, for which the self-cleavage turned out to be 0.43.

For the variant A90G U122C, the self-cleavage came to 0.65.

For U87C A114G, the self-cleavage came to 0.43.

As to A89U A110U, the self-cleavage was determined as 1.46.

Consider U87A A117G, for which the self-cleavage was 1.12.

A90C: the self-cleavage is 1.55.

For the variant A90U, the self-cleavage is 1.96.

A90G: the self-cleavage came out at 0.95.

Take A90G A135G: the self-cleavage came out at 0.51.

As to A89C A96G, the self-cleavage was 2.38.

Regarding G84A U102G, the self-cleavage stood at 1.29.

Regarding G84A U102A, the self-cleavage amounted to 2.02.

Take A82U A140G: the self-cleavage was 0.23.

For U87G A126C, the self-cleavage was determined as 0.12.

In the case of A86G A98G, the self-cleavage came out at 0.52.
